Test results reported in patent US20210403595 (published 2021).
Where two headings read alike, the source gives them in different places. One block for each binder: values may come before it.

Key:
[1] = biological target: human CD3 epsilon/delta heterodimer, Fc-tagged (human); test: SPR, 25C antibody-capture
[2] = biological target: human CD3 on Jurkat cells (human); test: FACS
[3] = biological target: T1, cynomolgus CD3 on T cells (cynomolgus monkey); test: FACS
T1 chain: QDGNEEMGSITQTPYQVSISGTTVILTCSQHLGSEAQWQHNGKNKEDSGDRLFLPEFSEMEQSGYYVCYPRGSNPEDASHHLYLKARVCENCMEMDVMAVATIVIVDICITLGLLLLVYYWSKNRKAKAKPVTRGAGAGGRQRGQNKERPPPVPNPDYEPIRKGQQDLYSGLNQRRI

[4] = biological target: human CD3 epsilon/delta heterodimer, Fc-tagged (human); test: SPR, 37C
[5] = biological target: human CD3 on Jurkat cells (human); test: FACS; remark: listed apart in the source
[6] = biological target: human CD3 epsilon/delta heterodimer, Fc-tagged (human); test: SPR, 25C antibody-capture; remark: listed apart in the source
[7] = biological target: human CD3 epsilon/delta heterodimer, Fc-tagged (human); test: SPR, 25C antigen-capture
[8] = biological target: human CD3 on Jurkat cells (human); test: FACS; remark: listed apart in the source
[9] = biological target: human CD3 epsilon/delta heterodimer, Fc-tagged (human); test: SPR, 25C antibody-capture; remark: listed apart in the source
[10] = biological target: T1, cynomolgus CD3 on T cells; test: FACS
human PSMA on cells = human PSMA on cells (human); test: FACS, 22RV1
human PSMA on cells (human), sequence (A4UU12 whole entry): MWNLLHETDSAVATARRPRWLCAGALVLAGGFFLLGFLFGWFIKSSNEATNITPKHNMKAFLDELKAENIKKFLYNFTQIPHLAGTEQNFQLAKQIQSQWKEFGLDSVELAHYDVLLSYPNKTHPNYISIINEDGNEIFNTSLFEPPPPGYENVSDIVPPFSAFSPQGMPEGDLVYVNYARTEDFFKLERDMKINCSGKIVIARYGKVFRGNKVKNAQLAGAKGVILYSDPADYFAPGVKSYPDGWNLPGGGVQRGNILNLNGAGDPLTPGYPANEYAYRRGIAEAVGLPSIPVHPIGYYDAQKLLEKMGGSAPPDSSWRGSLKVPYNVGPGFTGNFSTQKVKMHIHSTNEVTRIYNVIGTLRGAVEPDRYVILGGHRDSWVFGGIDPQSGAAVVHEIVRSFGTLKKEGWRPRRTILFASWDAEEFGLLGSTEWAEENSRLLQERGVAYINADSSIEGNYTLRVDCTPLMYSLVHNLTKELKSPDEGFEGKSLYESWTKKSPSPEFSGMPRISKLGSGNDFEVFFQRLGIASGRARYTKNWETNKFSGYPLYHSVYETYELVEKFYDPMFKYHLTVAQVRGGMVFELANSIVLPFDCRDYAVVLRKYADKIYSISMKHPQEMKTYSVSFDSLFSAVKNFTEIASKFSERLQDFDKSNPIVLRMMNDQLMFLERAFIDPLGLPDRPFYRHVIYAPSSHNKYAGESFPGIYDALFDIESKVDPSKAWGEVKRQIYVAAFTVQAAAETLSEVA

[11] = biological target: human CD3 on Jurkat cells (human); test: FACS; remark: listed apart in the source
[12] = biological target: human PSMA, N-terminal 6xHis (soluble) (human); test: SPR, 37C
human PSMA, N-terminal 6xHis (soluble) (human), sequence (A4UU12 whole entry): as above

[13] = biological target: human PSMA, N-terminal 6xHis (soluble) (human); test: SPR, 37C; remark: listed apart in the source
[14] = biological target: human CD3 epsilon/delta heterodimer, Fc-tagged (human); test: SPR, 25C antigen-capture; remark: listed apart in the source
[15] = biological target: human CD3 on Jurkat cells (human); test: FACS; remark: listed apart in the source

human CD3 on Jurkat cells (human), sequence (chain, as listed by the source, chain 1 of 2): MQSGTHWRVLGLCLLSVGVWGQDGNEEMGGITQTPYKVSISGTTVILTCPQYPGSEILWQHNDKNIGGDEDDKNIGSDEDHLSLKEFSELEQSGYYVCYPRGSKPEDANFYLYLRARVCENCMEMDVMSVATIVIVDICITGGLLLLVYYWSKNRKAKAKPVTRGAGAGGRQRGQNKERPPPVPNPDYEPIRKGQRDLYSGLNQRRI
human CD3 on Jurkat cells (human), sequence (chain, as listed by the source, chain 2 of 2): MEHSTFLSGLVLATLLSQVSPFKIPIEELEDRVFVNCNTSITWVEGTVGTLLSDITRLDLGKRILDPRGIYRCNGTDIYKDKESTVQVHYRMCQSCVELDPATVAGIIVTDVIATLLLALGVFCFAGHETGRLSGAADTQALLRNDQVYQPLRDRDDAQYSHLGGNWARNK
human CD3 epsilon/delta heterodimer, Fc-tagged (human), sequence (chain, as listed by the source mutant, chain 1 of 2): as the sequence (chain, as listed by the source, chain 1 of 2) above
human CD3 epsilon/delta heterodimer, Fc-tagged (human), sequence (chain, as listed by the source mutant, chain 2 of 2): as the sequence (chain, as listed by the source, chain 2 of 2) above

binding result [1]: no binding
B1: H1xH7221G3 (antibody, V domains shown)
VH: EVQLVESGGGLVQPGRSLRLSCAASGFTFDDYSMHWVRQAPGKGLEWVSGISWNSGSIGYADSVKGRFTISRDNAKNSLYLQMNSLRAEDTALYYCAKDGSGYGYFYYYGMDVWGQGTTVTVSS
VL: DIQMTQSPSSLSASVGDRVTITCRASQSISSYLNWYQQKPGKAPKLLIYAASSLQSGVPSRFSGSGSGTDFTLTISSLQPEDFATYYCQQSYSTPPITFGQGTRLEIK

binding result [2]: no binding | binding result [3]: no binding | binding result [4]: no binding
B2: BSPSMA/CD3-200 CD3 arm (antibody, V domains shown)
VH: EVQLVESGGGLVQPGRSLRLSCAASGFTFDDYAMHWVRQAPGKGLEWVSGISWNSGSIGYADSVKGRFTISRDNAKNSLYLQMNSLRAEDTALYYCAKDGSGYGYFYYYGMDVWGQGTTVTVSS
VL: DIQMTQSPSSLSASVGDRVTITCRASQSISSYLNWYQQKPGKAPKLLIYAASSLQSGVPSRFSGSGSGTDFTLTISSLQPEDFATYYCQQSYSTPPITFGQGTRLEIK

EC50 [5]: 1.5 nM | Kd [6]: 220 nM | Kd [7]: 10 nM
B3: H1H7232P (antibody, V domains shown)
VH: EVQLVESGGGLVHPGRSLRLSCAASGFTFDDYTMHWVRQAPGKGLEWVSDISWNSGSRGYADSVKGRFTISRDNAENSLYLQMNSLRAEDTALYYCAKDKSGYGHYYYYAMDVWGQGTTVTVSS
VL: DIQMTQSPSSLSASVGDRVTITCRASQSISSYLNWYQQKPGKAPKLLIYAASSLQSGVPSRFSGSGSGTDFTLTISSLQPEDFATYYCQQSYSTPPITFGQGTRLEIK

EC50 [5]: 1.4 nM
B4: H1H7221P (antibody, V domains shown)
VH: EVQLVESGGGLVQPGRSLRLSCVASGFTFDDYSMHWVRQAPGKGLEWVSGISWNSGSKDYADSVKGRFTISRDNAKNSLYLQMNSLRAEDTALYYCAKYGSGYGKFYHYGLDVWGQGTTVTVSS
VL: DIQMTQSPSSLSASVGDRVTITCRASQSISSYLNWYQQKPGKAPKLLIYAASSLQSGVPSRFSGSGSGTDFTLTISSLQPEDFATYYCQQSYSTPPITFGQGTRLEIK

binding result [1]: no binding
B5: H1xH7221G5 (antibody, V domains shown)
VH: EVQLVESGGGLVQPGRSLRLSCAASGFTFDDYSMHWVRQAPGKGLEWVSGISWNSGSIGYADSVKGRFTISRDNAKNSLYLQMNSLRAEDTALYYCAKDGSGYGKFYYYGMDVWGQGTTVTVSS
VL: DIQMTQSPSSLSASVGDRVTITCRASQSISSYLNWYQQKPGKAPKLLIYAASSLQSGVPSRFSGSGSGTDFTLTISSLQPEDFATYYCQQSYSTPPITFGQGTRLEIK

binding result [8]: no binding | binding result [9]: no binding
B6: H1H5782P (antibody, V domains shown)
VH: EVQLVESGGGLVQPGRSLRLSCAASGFTFDDYAMHWVRQAPGKGLEWVSGISWNSGSKDYADSVKGRFTISRDNTRNSLFLQMNSLRTEDTALYYCAKDKSGYGSFYYGMDVWGQGTTVTVSS
VL: not shown

binding result [9]: no binding
B7: H1H5752P (antibody, V domains shown)
VH: QVQLVESGGGVVQPGRSLRPSCAASGFSFRDYGMHWVRQAPGKGLEWMAHIWYNGKNKYYADSVKGRFTISRDNSKNTLYLQMNSLRPEDTAVYYCARDGVSARGTPFDYWGQGTLVTVSS
VL: ETTLTQSPAFMSAAPGDKVSISCIASQYIDDDVNWYQQKPGETAIFIIQEASTLVPGISPRFSGSGYGTHFTLTINNIDSEDAAFYFCLQHDNFPYTFGQGTKLEIK

EC50 [10]: 5.66 nM
B8: H1H2690N (antibody, V domains shown)
VH: EVQLVESGGGLVQPGRSLRLSCAASGFTFDDYTMHWVRQAPGKGLEWVSGISWNSGSIGYADSVKGRFTISRDNAKKSLYLQMNSLRAEDTALYYCAKDNSGYGHYYYGMDVWGQGTTVTVAS
VL: EIVMTQSPATLSVSPGERATLSCRASQSVSSNLAWYQQKPGQAPRLLIYGASTRATGIPARFSGSGSGTEFTLTISSLQSEDFAVYYCQHYINWPLTFGGGTKVEIK

EC50 [5]: 1.5 nM | Kd [6]: 13 nM
B9: H1H7194P (antibody, V domains shown)
VH: EVQLVESGGGLVQPGRSLRLSCAASGFTFGDYTMHWVRQAPGKGLEWVSDISWNSGSKDYADSVKGRFTISRDNAKNSLYLQMNSLRTEDTAFYYCAKDSRGYGLYYHLGLDVWGQGTTVTVSS
VL: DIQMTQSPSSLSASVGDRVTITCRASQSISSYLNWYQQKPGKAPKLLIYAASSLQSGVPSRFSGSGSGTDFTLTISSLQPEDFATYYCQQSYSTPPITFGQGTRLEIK

EC50 (human PSMA on cells): 78.5 nM
B10: BSPSMA/CD3-001 PSMA arm (antibody, V domains shown)
VH: QVQLVESGGGVVQPGRSLRLSCAASGFTFITYGMHWVRQAPGKGLEWVAIIYYDESNKYYADSVKGRFTISRDISKNTLYLQMNGLRAEDTAVYYCARAPRVAVEEDYSYYYGMDVWGQGTTVTVSS
VL: EIVMTQSPATLSVSPGERAILSCRASQNINSNLAWYQQKPGQAPRLLIYGASTRATGVPARFSGSGSGTEFTLTIRSLQSEDFAVYYCQQYYNWPITFGHGTRLEIK

binding result [11]: no binding
B11: H2M2689N (antibody, V domains shown)
VH: QVQLVESGGGVVQPGRSLRLSCAASGFTFSRKGMHWVRQAPVKGLEWVAVISYDGSNKYYADSVKGRFTISRDNSKNTLYLQMNSLTAEDTAVYYCAKEGGHDYGGTFDYWGQGTLVTVSS
VL: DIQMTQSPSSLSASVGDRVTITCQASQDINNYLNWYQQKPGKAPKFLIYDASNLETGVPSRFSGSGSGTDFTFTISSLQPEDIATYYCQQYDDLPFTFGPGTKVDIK

Kd [7]: 0.82 nM
B12: H1H7250P (antibody, V domains shown)
VH: QVQLVESGGGLVQPGRSLRLSCAASGFTFDDYTMHWVRQGPGKGLEWVSDIGWNSNTKGYADSVKGRFTISRDNAKNSLYLQMNSLRPEDTALYFCVKDKSGYGKFFIGLDVWGQGTMVTVSS
VL: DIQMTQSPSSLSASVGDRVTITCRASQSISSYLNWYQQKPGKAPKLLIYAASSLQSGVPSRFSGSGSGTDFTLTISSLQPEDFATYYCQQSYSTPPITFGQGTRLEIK

Kd [12]: 1.93 nM
B13: H1M11453N (antibody, V domains shown)
VH: EFQVVESGGGLVKPGGSLRLSCVVSGFTFSNYNMNWVRQAPAKGLEWVSSISTGSSDIYYADSVKGRFTISRDNAKNSLYLQMNSLRVEDTAVYYCARDIIGTTRDWGQGTLVTVSS
VL: DIQMTQSPSSLSASVGDSVTITCRASQSINNYLNWYQQKPGKAPKLLIYTASSLLSGVPSRFSGSGSGTDFTLTISGLHPEDFATYFCQQSFSTPPITFGQGTRLDIK

Kd [13]: 14 nM
B14: H1H11835P2 (antibody, V domains shown)
VH: EVQLVESGGGLVQSGGSLRLSCEASGFTFSNYWMTWIRQGPGKGLEWVANIKPDGTENYYVDSVKGRFTISRDNARNSLYLQMTSLKAEDTAVYYCGRMIQFVINIWGQGTLVTVSS
VL: DIQMTQSPSSLSASVGDSVTITCRASQSINNYLNWYQQKPGKAPKLLIYTASSLLSGVPSRFSGSGSGTDFTLTISGLHPEDFATYFCQQSFSTPPITFGQGTRLDIK

Kd [12]: 1.76 nM
B15: H2M11899N (antibody, V domains shown)
VH: QVQLVESGGGVVQPGRSLRLSCAASGFTFSSYDIHWVRQAPGKGLEWVSVIWYDGSNKYYADSVKGRFTISRDNSKNTLYLQMNSLRAEDTAVYYCARTVAARNYDYYVMDVWGQGTTVTVSS
VL: DIQMTQSPSSLSASVGDSVTITCRASQSINNYLNWYQQKPGKAPKLLIYTASSLLSGVPSRFSGSGSGTDFTLTISGLHPEDFATYFCQQSFSTPPITFGQGTRLDIK

binding result [14]: no binding | binding result [15]: no binding
B16: H1H7279P (antibody, V domains shown)
VH: EVQLVESGGGLVKPGGSLRISCAASGFSFINAWMNWVRQAPGKGLEWVGRIKSISDGGTTDYAASVKGRFTISREDSKNMLFLEMNSLKTEDTAVFYCTTEVARTPNYWGRGTLVTVSS
VL: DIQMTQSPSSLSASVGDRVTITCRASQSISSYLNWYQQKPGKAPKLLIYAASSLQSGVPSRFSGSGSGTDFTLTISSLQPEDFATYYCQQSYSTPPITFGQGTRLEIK
